B1: GCH055-G1dh/none-Hi-Kn010G3/L0222-k0 (antibody, human IgG1, kappa)
heavy: not shown
chain: EPKSSDKTHTCPPCPAPELLGGPSVFLFPPKPKDTLMISRTPEVTCVVVDVSHEDPEVKFNWYVDGVEVHNAKTKPREEQYNSTYRVVSVLTVLHQDWLNGKEYKCKVSNKALPAPIEKTISKAKGQPREPQVCTLPPSRDELTKNQVSLWCLVKGFYPSDIAVEWESNGQPENNYKTTPPVLDSDGSFFLYSKLTVDKSRWQQGNVFSCSVMHEALHNRYTQKSLSLSP
light: DIVMTQSPLSLPVTPGEPASISCRSSQSPVHSNRNTYIQWYQQKPGQAPRLLIYKVSNRFSGVPDRFSGSGSGTDFTLKISRVEAEDVGVYYCYQGTQVPYTFGQGTKLEIKRTVAAPSVFIFPPSDEQLKSGTASVVCLLNNFYPREAKVQWKVDNALQSGNSQESVTEQDSKDSTYSLSSTLTLSKADYEKHKVYACEVTHQGLSSPVTKSFNRGEC
notes: single-arm (one Fab)
B2: GCH060-G1dh/none-Hi-Kn010G3/L0222-k0 (antibody, human IgG1, kappa)
heavy: not shown
chain: EPKSSDKTHTCPPCPAPELLGGPSVFLFPPKPKDTLMISRTPEVTCVVVDVSHEDPEVKFNWYVDGVEVHNAKTKPREEQYNSTYRVVSVLTVLHQDWLNGKEYKCKVSNKALPAPIEKTISKAKGQPREPQVCTLPPSRDELTKNQVSLWCLVKGFYPSDIAVEWESNGQPENNYKTTPPVLDSDGSFFLYSKLTVDKSRWQQGNVFSCSVMHEALHNRYTQKSLSLSP
light: DIVMTQSPLSLPVTPGEPASISCRSSQSPVHSNRNTYIQWYQQKPGQAPRLLIYKVSNRFSGVPDRFSGSGSGTDFTLKISRVEAEDVGVYYCYQGTQVPYTFGQGTKLEIKRTVAAPSVFIFPPSDEQLKSGTASVVCLLNNFYPREAKVQWKVDNALQSGNSQESVTEQDSKDSTYSLSSTLTLSKADYEKHKVYACEVTHQGLSSPVTKSFNRGEC
notes: single-arm (one Fab)
B3: GCH065-G1dh/none-Hi-Kn010G3/L0000-k0 (antibody, human IgG1, kappa)
heavy: not shown
chain: EPKSSDKTHTCPPCPAPELLGGPSVFLFPPKPKDTLMISRTPEVTCVVVDVSHEDPEVKFNWYVDGVEVHNAKTKPREEQYNSTYRVVSVLTVLHQDWLNGKEYKCKVSNKALPAPIEKTISKAKGQPREPQVCTLPPSRDELTKNQVSLWCLVKGFYPSDIAVEWESNGQPENNYKTTPPVLDSDGSFFLYSKLTVDKSRWQQGNVFSCSVMHEALHNRYTQKSLSLSP
light: DIVMTQSPLSLPVTPGEPASISCRSSQSLVHSNRNTYLHWYQQKPGQAPRLLIYKVSNRFSGVPDRFSGSGSGTDFTLKISRVEAEDVGVYYCGQGTQVPYTFGQGTKLEIKRTVAAPSVFIFPPSDEQLKSGTASVVCLLNNFYPREAKVQWKVDNALQSGNSQESVTEQDSKDSTYSLSSTLTLSKADYEKHKVYACEVTHQGLSSPVTKSFNRGEC
notes: single-arm (one Fab)
B4: GCH064-G1dh/none-Hi-Kn010G3/L0000-k0 (antibody, human IgG1, kappa)
heavy: not shown
chain: EPKSSDKTHTCPPCPAPELLGGPSVFLFPPKPKDTLMISRTPEVTCVVVDVSHEDPEVKFNWYVDGVEVHNAKTKPREEQYNSTYRVVSVLTVLHQDWLNGKEYKCKVSNKALPAPIEKTISKAKGQPREPQVCTLPPSRDELTKNQVSLWCLVKGFYPSDIAVEWESNGQPENNYKTTPPVLDSDGSFFLYSKLTVDKSRWQQGNVFSCSVMHEALHNRYTQKSLSLSP
light: DIVMTQSPLSLPVTPGEPASISCRSSQSLVHSNRNTYLHWYQQKPGQAPRLLIYKVSNRFSGVPDRFSGSGSGTDFTLKISRVEAEDVGVYYCGQGTQVPYTFGQGTKLEIKRTVAAPSVFIFPPSDEQLKSGTASVVCLLNNFYPREAKVQWKVDNALQSGNSQESVTEQDSKDSTYSLSSTLTLSKADYEKHKVYACEVTHQGLSSPVTKSFNRGEC
notes: single-arm (one Fab)
B5: GCH056-G1dh/none-Hi-Kn010G3/L0215-k0 (antibody, human IgG1, kappa)
heavy: not shown
chain: EPKSSDKTHTCPPCPAPELLGGPSVFLFPPKPKDTLMISRTPEVTCVVVDVSHEDPEVKFNWYVDGVEVHNAKTKPREEQYNSTYRVVSVLTVLHQDWLNGKEYKCKVSNKALPAPIEKTISKAKGQPREPQVCTLPPSRDELTKNQVSLWCLVKGFYPSDIAVEWESNGQPENNYKTTPPVLDSDGSFFLYSKLTVDKSRWQQGNVFSCSVMHEALHNRYTQKSLSLSP
light: DIVMTQSPLSLPVTPGEPASISCRSSQPPVHSNRNTYIHWYQQKPGQAPRLLIYKVSNRFSGVPDRFSGSGSGTDFTLKISRVEAEDVGVYYCGQGTQVPYTFGQGTKLEIKRTVAAPSVFIFPPSDEQLKSGTASVVCLLNNFYPREAKVQWKVDNALQSGNSQESVTEQDSKDSTYSLSSTLTLSKADYEKHKVYACEVTHQGLSSPVTKSFNRGEC
notes: single-arm (one Fab)
B6: GCH060-G1dh/none-Hi-Kn010G3/L0200-k0 (antibody, human IgG1, kappa)
heavy: not shown
chain: EPKSSDKTHTCPPCPAPELLGGPSVFLFPPKPKDTLMISRTPEVTCVVVDVSHEDPEVKFNWYVDGVEVHNAKTKPREEQYNSTYRVVSVLTVLHQDWLNGKEYKCKVSNKALPAPIEKTISKAKGQPREPQVCTLPPSRDELTKNQVSLWCLVKGFYPSDIAVEWESNGQPENNYKTTPPVLDSDGSFFLYSKLTVDKSRWQQGNVFSCSVMHEALHNRYTQKSLSLSP
light: DIVMTQSPLSLPVTPGEPASISCRPSQSPVHSNRNTYLHWYQQKPGQAPRLLIYKVSNRFSGVPDRFSGSGSGTDFTLKISRVEAEDVGVYYCGQGTQVPYTFGQGTKLEIKRTVAAPSVFIFPPSDEQLKSGTASVVCLLNNFYPREAKVQWKVDNALQSGNSQESVTEQDSKDSTYSLSSTLTLSKADYEKHKVYACEVTHQGLSSPVTKSFNRGEC
notes: single-arm (one Fab)
B7: GCH065-G1dh/none-Hi-Kn010G3/L0201-k0 (antibody, human IgG1, kappa)
heavy: not shown
chain: EPKSSDKTHTCPPCPAPELLGGPSVFLFPPKPKDTLMISRTPEVTCVVVDVSHEDPEVKFNWYVDGVEVHNAKTKPREEQYNSTYRVVSVLTVLHQDWLNGKEYKCKVSNKALPAPIEKTISKAKGQPREPQVCTLPPSRDELTKNQVSLWCLVKGFYPSDIAVEWESNGQPENNYKTTPPVLDSDGSFFLYSKLTVDKSRWQQGNVFSCSVMHEALHNRYTQKSLSLSP
light: DIVMTQSPLSLPVTPGEPASISCRSSQPPVHSNRNTYLHWYQQKPGQAPRLLIYKVSNRFSGVPDRFSGSGSGTDFTLKISRVEAEDVGVYYCGQGTQVPYTFGQGTKLEIKRTVAAPSVFIFPPSDEQLKSGTASVVCLLNNFYPREAKVQWKVDNALQSGNSQESVTEQDSKDSTYSLSSTLTLSKADYEKHKVYACEVTHQGLSSPVTKSFNRGEC
notes: single-arm (one Fab)
B8: GCH056-G1dh/none-Hi-Kn010G3/L0201-k0 (antibody, human IgG1, kappa)
heavy: not shown
chain: EPKSSDKTHTCPPCPAPELLGGPSVFLFPPKPKDTLMISRTPEVTCVVVDVSHEDPEVKFNWYVDGVEVHNAKTKPREEQYNSTYRVVSVLTVLHQDWLNGKEYKCKVSNKALPAPIEKTISKAKGQPREPQVCTLPPSRDELTKNQVSLWCLVKGFYPSDIAVEWESNGQPENNYKTTPPVLDSDGSFFLYSKLTVDKSRWQQGNVFSCSVMHEALHNRYTQKSLSLSP
light: DIVMTQSPLSLPVTPGEPASISCRSSQPPVHSNRNTYLHWYQQKPGQAPRLLIYKVSNRFSGVPDRFSGSGSGTDFTLKISRVEAEDVGVYYCGQGTQVPYTFGQGTKLEIKRTVAAPSVFIFPPSDEQLKSGTASVVCLLNNFYPREAKVQWKVDNALQSGNSQESVTEQDSKDSTYSLSSTLTLSKADYEKHKVYACEVTHQGLSSPVTKSFNRGEC
notes: single-arm (one Fab)
B9: GCH065-G1dh/none-Hi-Kn010G3/L0011-k0 (antibody, human IgG1, kappa)
heavy: not shown
chain: EPKSSDKTHTCPPCPAPELLGGPSVFLFPPKPKDTLMISRTPEVTCVVVDVSHEDPEVKFNWYVDGVEVHNAKTKPREEQYNSTYRVVSVLTVLHQDWLNGKEYKCKVSNKALPAPIEKTISKAKGQPREPQVCTLPPSRDELTKNQVSLWCLVKGFYPSDIAVEWESNGQPENNYKTTPPVLDSDGSFFLYSKLTVDKSRWQQGNVFSCSVMHEALHNRYTQKSLSLSP
light: DIVMTQSPLSLPVTPGEPASISCRSSQPLVHSNRNTYLHWYQQKPGQAPRLLIYKVSNRFSGVPDRFSGSGSGTDFTLKISRVEAEDVGVYYCGQGTQVPYTFGQGTKLEIKRTVAAPSVFIFPPSDEQLKSGTASVVCLLNNFYPREAKVQWKVDNALQSGNSQESVTEQDSKDSTYSLSSTLTLSKADYEKHKVYACEVTHQGLSSPVTKSFNRGEC
notes: single-arm (one Fab)
B10: GCH057-G1dh/none-Hi-Kn010G3/L0215-k0 (antibody, human IgG1, kappa)
heavy: not shown
chain: EPKSSDKTHTCPPCPAPELLGGPSVFLFPPKPKDTLMISRTPEVTCVVVDVSHEDPEVKFNWYVDGVEVHNAKTKPREEQYNSTYRVVSVLTVLHQDWLNGKEYKCKVSNKALPAPIEKTISKAKGQPREPQVCTLPPSRDELTKNQVSLWCLVKGFYPSDIAVEWESNGQPENNYKTTPPVLDSDGSFFLYSKLTVDKSRWQQGNVFSCSVMHEALHNRYTQKSLSLSP
light: DIVMTQSPLSLPVTPGEPASISCRSSQPPVHSNRNTYIHWYQQKPGQAPRLLIYKVSNRFSGVPDRFSGSGSGTDFTLKISRVEAEDVGVYYCGQGTQVPYTFGQGTKLEIKRTVAAPSVFIFPPSDEQLKSGTASVVCLLNNFYPREAKVQWKVDNALQSGNSQESVTEQDSKDSTYSLSSTLTLSKADYEKHKVYACEVTHQGLSSPVTKSFNRGEC
notes: single-arm (one Fab)
B11: GCH062-G1dh/none-Hi-Kn010G3/L0000-k0 (antibody, human IgG1, kappa)
heavy: not shown
chain: EPKSSDKTHTCPPCPAPELLGGPSVFLFPPKPKDTLMISRTPEVTCVVVDVSHEDPEVKFNWYVDGVEVHNAKTKPREEQYNSTYRVVSVLTVLHQDWLNGKEYKCKVSNKALPAPIEKTISKAKGQPREPQVCTLPPSRDELTKNQVSLWCLVKGFYPSDIAVEWESNGQPENNYKTTPPVLDSDGSFFLYSKLTVDKSRWQQGNVFSCSVMHEALHNRYTQKSLSLSP
light: DIVMTQSPLSLPVTPGEPASISCRSSQSLVHSNRNTYLHWYQQKPGQAPRLLIYKVSNRFSGVPDRFSGSGSGTDFTLKISRVEAEDVGVYYCGQGTQVPYTFGQGTKLEIKRTVAAPSVFIFPPSDEQLKSGTASVVCLLNNFYPREAKVQWKVDNALQSGNSQESVTEQDSKDSTYSLSSTLTLSKADYEKHKVYACEVTHQGLSSPVTKSFNRGEC
notes: single-arm (one Fab)
B12: GCH057-G1dh/none-Hi-Kn010G3/L0222-k0 (antibody, human IgG1, kappa)
heavy: not shown
chain: EPKSSDKTHTCPPCPAPELLGGPSVFLFPPKPKDTLMISRTPEVTCVVVDVSHEDPEVKFNWYVDGVEVHNAKTKPREEQYNSTYRVVSVLTVLHQDWLNGKEYKCKVSNKALPAPIEKTISKAKGQPREPQVCTLPPSRDELTKNQVSLWCLVKGFYPSDIAVEWESNGQPENNYKTTPPVLDSDGSFFLYSKLTVDKSRWQQGNVFSCSVMHEALHNRYTQKSLSLSP
light: DIVMTQSPLSLPVTPGEPASISCRSSQSPVHSNRNTYIQWYQQKPGQAPRLLIYKVSNRFSGVPDRFSGSGSGTDFTLKISRVEAEDVGVYYCYQGTQVPYTFGQGTKLEIKRTVAAPSVFIFPPSDEQLKSGTASVVCLLNNFYPREAKVQWKVDNALQSGNSQESVTEQDSKDSTYSLSSTLTLSKADYEKHKVYACEVTHQGLSSPVTKSFNRGEC
notes: single-arm (one Fab)
B13: GCH056-G1dh/none-Hi-Kn010G3/L0262-k0 (antibody, human IgG1, kappa)
heavy: not shown
chain: EPKSSDKTHTCPPCPAPELLGGPSVFLFPPKPKDTLMISRTPEVTCVVVDVSHEDPEVKFNWYVDGVEVHNAKTKPREEQYNSTYRVVSVLTVLHQDWLNGKEYKCKVSNKALPAPIEKTISKAKGQPREPQVCTLPPSRDELTKNQVSLWCLVKGFYPSDIAVEWESNGQPENNYKTTPPVLDSDGSFFLYSKLTVDKSRWQQGNVFSCSVMHEALHNRYTQKSLSLSP
light: DIVMTQSPLSLPVTPGEPASISCRSSQPPVHSNRNTYLHWYQQKPGQAPRLLIYKVSNRFSGVPDRFSGSGSGTDFTLKISRVEAEDVGVYYCAQGTQVPYTFGQGTKLEIKRTVAAPSVFIFPPSDEQLKSGTASVVCLLNNFYPREAKVQWKVDNALQSGNSQESVTEQDSKDSTYSLSSTLTLSKADYEKHKVYACEVTHQGLSSPVTKSFNRGEC
notes: single-arm (one Fab)

Target: T1, soluble human GPC3 (human, UniProt P51654 25-563, limits assumed)
T1 construct: soluble human GPC3 as analyte; also called glypican 3
Experiment: SPR (Biacore), soluble human GPC3

T1 sequence (P51654 other isoform, or with tags, fused parts or gaps limits assumed, form in doubt): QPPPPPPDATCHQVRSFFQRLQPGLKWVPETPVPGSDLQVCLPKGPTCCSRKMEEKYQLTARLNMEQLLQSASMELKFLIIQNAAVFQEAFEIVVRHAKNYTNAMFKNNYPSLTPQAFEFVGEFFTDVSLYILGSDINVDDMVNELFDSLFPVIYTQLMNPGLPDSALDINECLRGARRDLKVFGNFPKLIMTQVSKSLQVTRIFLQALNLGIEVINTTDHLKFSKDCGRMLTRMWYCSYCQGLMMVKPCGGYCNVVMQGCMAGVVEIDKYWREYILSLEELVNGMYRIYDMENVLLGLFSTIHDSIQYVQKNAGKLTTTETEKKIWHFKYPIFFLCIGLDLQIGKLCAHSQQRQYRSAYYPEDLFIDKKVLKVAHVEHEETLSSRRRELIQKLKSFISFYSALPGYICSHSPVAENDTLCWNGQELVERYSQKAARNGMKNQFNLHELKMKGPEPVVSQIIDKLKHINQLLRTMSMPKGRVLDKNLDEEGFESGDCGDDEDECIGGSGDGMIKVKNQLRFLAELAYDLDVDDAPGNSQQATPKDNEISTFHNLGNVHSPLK

Binder	Kd
B1	0.0039 nM
B2	0.000642 nM
B3	1.41 nM
B4	4.14 nM
B5	1.59 nM
B6	1.34 nM
B7	0.0774 nM
B8	1.16 nM
B9	0.884 nM
B10	1.83 nM
B11	3.73 nM
B12	0.00185 nM
B13	0.0119 nM

From patent US20210388110A1 (published 2021)
